According to US20030171537A1 (Bayer, published 2003):
Non-standard residues stand in square brackets, D forms with d.

Target: human wild-type p53 (full-length, in vitro translated from plasmid pGEMhump53wt) (human, UniProt P04637 1-393)
Assay: cell-based or functional assay

Chain of human wild-type p53 (full-length, in vitro translated from plasmid pGEMhump53wt) (P04637 whole entry): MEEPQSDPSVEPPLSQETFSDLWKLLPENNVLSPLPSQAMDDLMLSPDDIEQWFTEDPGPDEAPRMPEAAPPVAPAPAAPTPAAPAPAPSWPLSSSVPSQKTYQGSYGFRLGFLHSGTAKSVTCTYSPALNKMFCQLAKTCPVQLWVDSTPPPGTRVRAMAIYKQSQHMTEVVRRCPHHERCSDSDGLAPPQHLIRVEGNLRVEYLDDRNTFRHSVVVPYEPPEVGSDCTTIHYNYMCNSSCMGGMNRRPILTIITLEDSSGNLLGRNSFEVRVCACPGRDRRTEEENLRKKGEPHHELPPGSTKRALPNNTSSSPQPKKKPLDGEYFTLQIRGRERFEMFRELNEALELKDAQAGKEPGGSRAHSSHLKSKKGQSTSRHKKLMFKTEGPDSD

B1: cyclic peptide c[SRHKKa] (peptide)
peptide: cyclo(SRHKK[dA])
SMILES: C[C@H]1NC(=O)[C@H](CCCCN)NC(=O)[C@H](CCCCN)NC(=O)[C@H](Cc2c[nH]cn2)NC(=O)[C@H](CCCNC(=N)N)NC(=O)[C@H](CO)NC1=O
  activation of p53 DNA binding (gel shift), relative to 0.05 mM peptide p53p363-373: ~2 times
